Results from patent US11261437B2, “Procoagulant compounds” (Bioverativ Therapeutics Inc., priority 2012, dated 2022).
*1 amine or outer side, *2 acyl side, *3 side chain or, on linkers, in order; H or OH if unused. Bridges are numbered along the chain shown (N, C = ends). Where no end group is shown, it is not given here. [ ]: non-standard residue; d: D form. The star is where a group is joined. PABC = O=C(OCc1ccc(N[*:1])cc1)[*:2]; Pip = O=C(O)[C@@H]1CCCCN1; Acm = CC(=O)NC*

Experiments:
Type in all cases: biochemical
thrombin [1] = biological target: T1, thrombin (Homo sapiens, UniProt P00734); assay: Thrombin cleavage of Compounds 1, 4, 5 and 6 by 1.4 nM thrombin (HPLC); conditions: thrombin 1.4 nM, peptide 50 μM, PBS, 37° C.
Description: FIG. 9 depicts the cleavage of Compounds 1, 4, 5 and 6 by 1.4 nM thrombin. Compounds 1, 4 and 5 incorporate PABC and different thrombin-cleavable substrates.
50 μL of peptide (1 mM) in water was added to 900 μL PBS. The mixture was incubated at 37° C. for 30 min, followed by 50 μL of thrombin (27.8 nM, 1 μg/mL), giving the following approximate initial concentrations: thrombin=1.4 nM, peptide=50 μM. The mixture was incubated at 37° C. Aliquots (95 μL) at various time points were quenched with 5 μL of hirudin (2 μM) and injected into the HPLC (C-18 column, CH3CN/H2O, 0 to 70% over 12 minutes, 60° C. 0.5 mL/min, ? =280 nm). The decreases of peptide peak areas were used to calculate yield.

thrombin [2] = biological target: T1, thrombin; assay: Thrombin cleavage of Compound 7 (HPLC); conditions: 1.4 nm thrombin, peptide 10 μM, PBS, 37° C., after 30 minutes
Description: FIG. 5 depicts the cleavage of Compound 7 by thrombin. Upon cleavage with 1.4 nM thrombin in PBS, the clean synthetic procoagulant peptide is released, as well as the portion of the molecule comprising the thrombin substrate, the GGGG linker, and the N-terminal cysteine. To conduct the reaction, 21 μL of peptide (0.24 mM) in water was added to 476.5 μL PBS. The mixture was incubated at 37° C. for 30 min, followed by 2.5 μL of thrombin (278 nM, 10 μg/mL), giving the following approximate initial concentrations: thrombin=1.4 nM, peptide=10 μM. The mixture was incubated at 37° C. Aliquots (60 μL) at various time points were quenched with 1 μL of hirudin (10 μM) and injected into the HPLC (C-18 column, CH3CN/H2O, 0 to 70% over 12 minutes, 60° C. 0.5 mL/min, ? =280 nm). Compound 7 was cleaved rapidly by 1.4 nm thrombin. Approximately 90% of Compound 7 was cleaved after 30 minutes.

plasma (TGA assay) = assay: Cleavage of Compound 7 during the TGA assay (HPLC of plasma); conditions: plasma at the end of TGA assay
Description: Plasma at the end of TGA assay for Compound 7 was transferred into cold CH3CN (1 mL) and centrifuged at 13 k rpm for 10 min. Supernatant (1.1 mL) was transferred to a new vial and dried by speedvac. The resulting solid was reconstituted with 30 μL of H2O and injected into the HPLC for analysis.

| Substance | Thrombin-mediated release of peptide IVGGQE (thrombin [1]) | Compound cleaved by thrombin (thrombin [2]) | Cleavage during the course of a TGA assay (plasma (TGA assay)) |
| --- | --- | --- | --- |
| Ala-Leu-Val-Pro-Arg-Ile-Val-Gly-Gly-Gln-Glu-NH2 (ALVPRIVGGQE-NH2) [Compound 6] | not observed | – | – |
| Cys(Acm)-Gly-Gly-Gly-Gly-Dphe-Pip-Arg-PABC-rRAPGKLTCLASYCWLFWTGIA-NH2 (disulfide) (C(Acm)GGGG[dF][Pip]R[PABC][dR]RAPGKLTCLASYCWLFWTGIA-NH2; disulfide 18-23 (inferred)) [Compound 7] | – | Approximately 90% | cleaved completely |
